Source: article PMC10709384, “Structure of the complete Saccharomyces cerevisiae Rpd3S-nucleosome complex” (Nature Communications, 2023)

Target: the molecule itself
Assay: cryo-EM structure; nucleosome (0.9 µM) and Rpd3S (1.8 µM) mixed on ice for 1 h in 50 mM NaCl, 20 mM Na-HEPES pH 7.4, 1 mM TCEP, 4% glycerol; Superose 6 Increase 3.2/300; mild glutaraldehyde cross-linking; single-particle cryo-EM, overall 2.8 Å (Ume1 only at more than 8 Å)

B1: Rco1 (natural protein, S. cerevisiae)
chain: MDTSKKDTTRSPSHSNSSSPSSSSLSSSSSKEKKRPKRLSSQNVNYDLKRRKIITSEGIERSFKNEHSNLAVEDNIPEEEPKELLEKDSKGNIIKLNEPSTISEDSKVSVTGLPLNKGPSEKIKRESLWNYRKNLGGQSNNSEMTLVPSKRFTQVPKNFQDLNRNDLKTFLTENMTEESNIRSTIGWNGDIINRTRDREPESDRDNKKLSNIRTKIILSTNATYDSKSKLFGQNSIKSTSNASEKIFRDKNNSTIDFENEDFCSACNQSGSFLCCDTCPKSFHFLCLDPPIDPNNLPKGDWHCNECKFKIFINNSMATLKKIESNFIKQNNNVKIFAKLLFNIDSHNPKQFQLPNYIKETFPAVKTGSRGQYSDENDKIPLTDRQLFNTSYGQSITKLDSYNPDTHIDSNSGKFLICYKCNQTRLGSWSHPENSRLIMTCDYCQTPWHLDCVPRASFKNLGSKWKCPLHSPTKVYKKIHHCQEDNSVNYKVWKKQRLINKKNQLYYEPLQKIGYQNNGNIQIIPTTSHTDYDFNQDFKITQIDENSIKYDFFDKIYKSKMVQKRKLFQFQESLIDKLVSNGSQNGNSEDNMVKDIASLIYFQVSNNDKSSNNKSASKSNNLRKLWDLKELTNVVVPNELDSIQFNDFSSDEIKHLLYLKKIIESKPKEELLKFLNIENPENQSE
notes: Rco1, S. cerevisiae, amplified from genomic DNA of strain BJ5464; cloned into a 438-A vector with no tag; Two copies (Rco1A in the core module, Rco1B in the auxiliary module) stand in the Rpd3S complex; also called Rco1A; Rco1B
B1: binds.
